Each block holds one molecule with its values, some of them ahead of it.
Key:
[1] = biological target: RLC-depleted porcine cardiac (PC) myosin (porcine) (UniProt P79293); test: reconstitution of RLC-depleted skinned muscle strips, SDS-PAGE; skinned porcine papillary muscle strips depleted of RLC with CDTA/Triton X-100, incubated with 40 uM RLC-WT or IVS6-1 and 2 mM DTT in pCa 8 solution, then RLC and TnC; washed, SDS-PAGE
[2] = biological target: RLC-depleted porcine cardiac (PC) myosin (porcine) (UniProt P79293); test: co-sedimentation; ~2.8 uM RLC-depleted PC myosin titrated with 0.1-14 uM human WT or IVS6-1 RLC (molar ratio 0.1-5.0) in 0.4 M KCl, 50 mM MOPS pH 7.0, 2 mM MgCl2, 1 mM DTT, with BSA, 30 min room temperature; myosin precipitated with 13 vol ice-cold water, pellet on SDS-PAGE, RLC/ELC band ratio; apparent Kd
[3] = biological target: pyrene labeled rabbit skeletal F-actin (rabbit) (UniProt P68135)
[4] = biological target: pyrene labeled rabbit skeletal F-actin (rabbit) (UniProt P68135); test: other fluorescence titration; 0.5 uM pyrene labeled F-actin titrated with myosin in 0.05 uM increments to ~2 fold molar excess, rigor conditions; excitation 340 nm, emission 407 nm; quadratic fit; apparent Kd and stoichiometry n
[5] = biological target: pyrene labeled rabbit skeletal F-actin (rabbit) (UniProt P68135); test: stopped-flow pyrene fluorescence; 0.25 uM myosin with 0.25 uM pyrene labeled F-actin (0.25 uM phalloidin) in rigor buffer 0.4 M KCl, 1 mM DTT, 10 mM MOPS pH 7.0, mixed 1:1 with 10-150 uM MgATP; MgATP-induced dissociation, single exponential fit

percent fiber reconstitution [1]: 100% | Kd [2]: 4410 nM
Molecule: human cardiac RLC IVS6-1 (c403-1G>C) splice site mutant protein (from UniProt P10916 1-134) (natural protein)

Km (actin) of actin-activated myosin ATPase activity [3]: 1.93 µM | Vmax of actin-activated myosin ATPase activity (F-actin 0.1-25 uM, ~1.9 uM myosin, 30°C) [3]: 0.24 s⁻¹ | Kd [4]: 2.9 nM | stoichiometry N [4]: 0.47 | k1, MgATP-induced actin-myosin dissociation rate at 10 μM MgATP [5]: 6.2 s⁻¹ | k1, MgATP-induced actin-myosin dissociation rate at 25 μM MgATP [5]: 15.8 s⁻¹ | k1, MgATP-induced actin-myosin dissociation rate at 40 μM MgATP [5]: 24.5 s⁻¹ | k1, MgATP-induced actin-myosin dissociation rate at 60 μM MgATP [5]: 33.4 s⁻¹ | k1, MgATP-induced actin-myosin dissociation rate at 80 μM MgATP [5]: 47.2 s⁻¹ | k1, MgATP-induced actin-myosin dissociation rate at 125 μM MgATP [5]: 65.9 s⁻¹ | k1, MgATP-induced actin-myosin dissociation rate at 150 μM MgATP [5]: 86.8 s⁻¹
Molecule: native porcine cardiac (PC) myosin (from UniProt P79293 1-1935) (complex)

Km (actin) of actin-activated myosin ATPase activity [3]: 3.33 µM | Vmax of actin-activated myosin ATPase activity (F-actin 0.1-25 uM, ~1.9 uM myosin, 30°C) [3]: 0.15 s⁻¹ | Kd [4]: 16.7 nM | stoichiometry N [4]: 0.59 | k1, MgATP-induced actin-myosin dissociation rate at 10 μM MgATP [5]: 5.5 s⁻¹ | k1, MgATP-induced actin-myosin dissociation rate at 25 μM MgATP [5]: 14.4 s⁻¹ | k1, MgATP-induced actin-myosin dissociation rate at 40 μM MgATP [5]: 21 s⁻¹ | k1, MgATP-induced actin-myosin dissociation rate at 60 μM MgATP [5]: 30.5 s⁻¹ | k1, MgATP-induced actin-myosin dissociation rate at 80 μM MgATP [5]: 41.4 s⁻¹ | k1, MgATP-induced actin-myosin dissociation rate at 125 μM MgATP [5]: 57.5 s⁻¹ | k1, MgATP-induced actin-myosin dissociation rate at 150 μM MgATP [5]: 67.8 s⁻¹
Molecule: porcine cardiac myosin reconstituted with human cardiac RLC IVS6-1 (from UniProt P79293 1-1935; P10916 1-134) (complex)

Km (actin) of actin-activated myosin ATPase activity [3]: 3.67 µM | Vmax of actin-activated myosin ATPase activity (F-actin 0.1-25 uM, ~1.9 uM myosin, 30°C) [3]: 0.25 s⁻¹ | Kd [4]: 4.6 nM | stoichiometry N [4]: 0.51 | k1, MgATP-induced actin-myosin dissociation rate at 10 μM MgATP [5]: 7.4 s⁻¹ | k1, MgATP-induced actin-myosin dissociation rate at 25 μM MgATP [5]: 15.6 s⁻¹ | k1, MgATP-induced actin-myosin dissociation rate at 40 μM MgATP [5]: 19.9 s⁻¹ | k1, MgATP-induced actin-myosin dissociation rate at 60 μM MgATP [5]: 36 s⁻¹ | k1, MgATP-induced actin-myosin dissociation rate at 80 μM MgATP [5]: 50.4 s⁻¹ | k1, MgATP-induced actin-myosin dissociation rate at 125 μM MgATP [5]: 70.4 s⁻¹ | k1, MgATP-induced actin-myosin dissociation rate at 150 μM MgATP [5]: 88.7 s⁻¹
Molecule: porcine cardiac myosin reconstituted with human cardiac RLC WT (from UniProt P79293 1-1935; P10916 1-166) (complex)

percent fiber reconstitution [1]: 100% | Kd [2]: 1420 nM
B1: wild-type (WT) human cardiac (ventricular/slow-twitch skeletal) myosin regulatory light chain (natural protein)
chain: MAPKKAKKRAGGANSNVFSMFEQTQIQEFKEAFTIMDQNRDGFIDKNDLRDTFAALGRVNVKNEEIDEMIKEAPGPINFTVFLTMFGEKLKGADPEETILNAFKVFDPEGKGVLKADYVREMLTTQAERFSKEEVDQMFAAFPPDVTGNLDYKNLVHIITHGEEKD
